As a reminder, the Kd is the equilibrium constant for the complex coming apart. A high value points to lower affinity.

We go through one molecule from paper doi:10.1101/2024.02.22.581535.

In the assay the target is Bio-His-FIKK13 (P. falciparum). As to the kind of experiment: SPR. (In general: Surface plasmon resonance follows binding to a sensor surface in real time, without labels.)

The molecule YPLRFLSKYHCG [FIKK13_4] returned a Kd of 17 nM.
